# T1: ARHGEF11, O15085
# T1 sequence (O15085 42-136, limits assumed, looked up): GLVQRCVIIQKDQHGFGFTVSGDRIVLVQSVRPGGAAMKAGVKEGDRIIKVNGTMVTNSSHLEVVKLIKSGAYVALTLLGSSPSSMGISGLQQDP
# T2: MPP2, Q14168
# T2 sequence (Q14168 180-250, limits assumed, looked up): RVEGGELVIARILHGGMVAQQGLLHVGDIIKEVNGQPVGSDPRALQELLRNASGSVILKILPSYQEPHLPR
# T3: APBA1_2, Q02410
# T3 sequence (Q02410 742-832, limits assumed, looked up): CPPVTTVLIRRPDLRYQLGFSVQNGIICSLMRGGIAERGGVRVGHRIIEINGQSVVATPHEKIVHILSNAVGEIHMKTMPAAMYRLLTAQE
# T4: PDZD7_3, Q9H5P4
# T4 sequence (Q9H5P4 857-944, limits assumed, looked up): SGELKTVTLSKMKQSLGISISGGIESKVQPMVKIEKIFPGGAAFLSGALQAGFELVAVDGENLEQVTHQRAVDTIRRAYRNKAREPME
# T5: APBA2_1, Q99767
# T5 sequence (Q99767 563-664, limits assumed, looked up): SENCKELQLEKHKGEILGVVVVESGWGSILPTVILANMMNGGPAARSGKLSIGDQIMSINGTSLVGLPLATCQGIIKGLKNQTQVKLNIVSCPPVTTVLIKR
# T6: MPP7, Q5T2T1
# T6 sequence (Q5T2T1 134-230, limits assumed, looked up): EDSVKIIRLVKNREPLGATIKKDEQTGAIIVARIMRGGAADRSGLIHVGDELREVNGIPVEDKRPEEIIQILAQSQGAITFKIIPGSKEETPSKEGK
# T7: NHERF3_3, Q5T2W1
# T7 sequence (Q5T2W1 238-333, limits assumed, looked up): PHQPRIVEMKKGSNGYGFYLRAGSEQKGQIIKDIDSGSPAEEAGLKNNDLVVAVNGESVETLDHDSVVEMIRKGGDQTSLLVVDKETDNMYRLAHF
# T8: HTRA4, P83105
# T8 sequence (P83105 378-476, limits assumed, looked up): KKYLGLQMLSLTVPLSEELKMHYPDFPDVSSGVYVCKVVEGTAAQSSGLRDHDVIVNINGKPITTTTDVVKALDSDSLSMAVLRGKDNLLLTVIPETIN
# T9: MPDZ_12, O75970
# T9 sequence (O75970 1857-1958, limits assumed, looked up): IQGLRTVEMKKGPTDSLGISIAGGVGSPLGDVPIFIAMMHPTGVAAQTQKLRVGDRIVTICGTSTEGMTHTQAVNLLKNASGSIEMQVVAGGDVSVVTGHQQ
# T10: GRIP1_7, Q9Y3R0
# T10 sequence (Q9Y3R0 999-1096, limits assumed, looked up): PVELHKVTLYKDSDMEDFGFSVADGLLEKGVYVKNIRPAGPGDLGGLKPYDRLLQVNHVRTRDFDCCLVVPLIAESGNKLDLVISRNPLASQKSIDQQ
# T11: DVL3, Q92997
# T11 sequence (Q92997 244-331, limits assumed, looked up): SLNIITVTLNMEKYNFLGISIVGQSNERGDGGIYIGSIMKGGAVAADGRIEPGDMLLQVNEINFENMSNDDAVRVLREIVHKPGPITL
# T12: TIAM2, Q8IVF5
# T12 sequence (Q8IVF5 885-986, limits assumed, looked up): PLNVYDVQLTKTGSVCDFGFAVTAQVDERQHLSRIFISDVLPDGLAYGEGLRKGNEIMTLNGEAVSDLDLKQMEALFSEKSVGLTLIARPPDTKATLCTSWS
# T13: LNX2_2, Q8N448
# T13 sequence (Q8N448 334-432, limits assumed, looked up): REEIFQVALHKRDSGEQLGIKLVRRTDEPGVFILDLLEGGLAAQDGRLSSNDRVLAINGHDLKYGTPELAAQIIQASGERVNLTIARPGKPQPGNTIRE
# T14: SNTG1, Q9NSN8
# T14 sequence (Q9NSN8 52-150, limits assumed, looked up): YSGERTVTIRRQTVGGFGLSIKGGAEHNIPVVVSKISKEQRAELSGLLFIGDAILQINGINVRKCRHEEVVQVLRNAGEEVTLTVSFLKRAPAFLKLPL
# B1: BPIFA2, Q96DR5 (peptide)
# chain: QHKTQLQTLI
# B2: IQSEC2, Q5JU85 (peptide)
# chain: AKPSRISTVV
# B3: ERBB2, P04626 (peptide)
# chain: PEYLGLDVPV
# Target: T1, ARHGEF11, O15085
# Assay: holdup assay
# Parameters: key: below the threshold = too weak to quantify, mostly under pKd 3.1 to 4
# Conditions: plain residues with an end cap or a label only (N-terminal biotin on a linker: ado-ado)
row,Binder,pKd
1,B1,3.7
2,B2,4.59
3,B3,3.83

# Target: T2, MPP2, Q14168
# Assay: holdup assay
# Parameters: key: below the threshold = too weak to quantify, mostly under pKd 3.1 to 4
# Conditions: plain residues with an end cap or a label only (N-terminal biotin on a linker: ado-ado)
row,Binder,pKd
1,B1,below the threshold
2,B2,below the threshold
3,B3,below the threshold

# Target: T3, APBA1_2, Q02410
# Assay: holdup assay
# Parameters: key: below the threshold = too weak to quantify, mostly under pKd 3.1 to 4
# Conditions: plain residues with an end cap or a label only (N-terminal biotin on a linker: ado-ado)
row,Binder,pKd
1,B1,below the threshold
2,B2,3.49
3,B3,below the threshold

# Target: T4, PDZD7_3, Q9H5P4
# Assay: holdup assay
# Parameters: key: below the threshold = too weak to quantify, mostly under pKd 3.1 to 4
# Conditions: plain residues with an end cap or a label only (N-terminal biotin on a linker: ado-ado)
row,Binder,pKd
1,B1,5.15
2,B2,5.21
3,B3,below the threshold

# Target: HTRA2, O43464
# Assay: holdup assay
# Parameters: key: below the threshold = too weak to quantify, mostly under pKd 3.1 to 4
# Conditions: plain residues with an end cap or a label only (N-terminal biotin on a linker: ado-ado)
# Chain of HTRA2, O43464 (O43464 355-458): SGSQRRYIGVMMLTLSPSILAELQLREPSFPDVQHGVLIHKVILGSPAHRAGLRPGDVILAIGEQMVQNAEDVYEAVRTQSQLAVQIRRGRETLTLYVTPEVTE
row,Binder,pKd
1,B1,below the threshold
2,B2,below the threshold
3,B3,below the threshold

# Target: T5, APBA2_1, Q99767
# Assay: holdup assay
# Parameters: key: below the threshold = too weak to quantify, mostly under pKd 3.1 to 4
# Conditions: plain residues with an end cap or a label only (N-terminal biotin on a linker: ado-ado)
row,Binder,pKd
1,B1,below the threshold
2,B2,below the threshold
3,B3,below the threshold

# Target: GRIP2_3, Q9C0E4
# Assay: holdup assay
# Parameters: key: below the threshold = too weak to quantify, mostly under pKd 3.1 to 4
# Conditions: plain residues with an end cap or a label only (N-terminal biotin on a linker: ado-ado)
# Chain of GRIP2_3, Q9C0E4 (Q9C0E4 238-339): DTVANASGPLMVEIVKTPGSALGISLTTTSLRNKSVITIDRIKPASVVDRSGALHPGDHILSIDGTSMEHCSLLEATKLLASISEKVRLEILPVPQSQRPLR
row,Binder,pKd
1,B1,below the threshold
2,B2,below the threshold
3,B3,below the threshold

# Target: Inadl_3, Q8NI35
# Assay: holdup assay
# Parameters: key: below the threshold = too weak to quantify, mostly under pKd 3.1 to 4
# Conditions: plain residues with an end cap or a label only (N-terminal biotin on a linker: ado-ado)
# Chain of Inadl_3, Q8NI35 (Q8NI35 359-469): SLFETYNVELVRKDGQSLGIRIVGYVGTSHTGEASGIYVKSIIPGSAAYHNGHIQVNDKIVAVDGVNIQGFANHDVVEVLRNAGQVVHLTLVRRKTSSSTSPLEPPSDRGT
row,Binder,pKd
1,B1,3.93
2,B2,3.73
3,B3,3.48

# Target: SCRIB_1, Q14160
# Assay: holdup assay
# Parameters: key: below the threshold = too weak to quantify, mostly under pKd 3.1 to 4
# Conditions: plain residues with an end cap or a label only (N-terminal biotin on a linker: ado-ado)
# Chain of SCRIB_1, Q14160 (Q14160 718-814): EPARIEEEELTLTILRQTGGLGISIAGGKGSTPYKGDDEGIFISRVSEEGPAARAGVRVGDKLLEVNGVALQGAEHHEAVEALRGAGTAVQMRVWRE
row,Binder,pKd
1,B1,4.02
2,B2,3.58
3,B3,below the threshold

# Target: TJP1_2, Q07157
# Assay: holdup assay
# Parameters: key: below the threshold = too weak to quantify, mostly under pKd 3.1 to 4
# Conditions: plain residues with an end cap or a label only (N-terminal biotin on a linker: ado-ado)
# Chain of TJP1_2, Q07157 (Q07157 181-274): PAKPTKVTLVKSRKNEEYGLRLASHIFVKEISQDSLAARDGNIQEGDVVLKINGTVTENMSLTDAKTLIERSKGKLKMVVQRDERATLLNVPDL
row,Binder,pKd
1,B1,below the threshold
2,B2,below the threshold
3,B3,3.65

# Target: T6, MPP7, Q5T2T1
# Assay: holdup assay
# Parameters: key: below the threshold = too weak to quantify, mostly under pKd 3.1 to 4
# Conditions: plain residues with an end cap or a label only (N-terminal biotin on a linker: ado-ado)
row,Binder,pKd
1,B1,below the threshold
2,B2,below the threshold
3,B3,below the threshold

# Target: T7, NHERF3_3, Q5T2W1
# Assay: holdup assay
# Parameters: key: below the threshold = too weak to quantify, mostly under pKd 3.1 to 4
# Conditions: plain residues with an end cap or a label only (N-terminal biotin on a linker: ado-ado)
row,Binder,pKd
1,B1,below the threshold
2,B2,below the threshold
3,B3,below the threshold

# Target: LIMK2, P53671
# Assay: holdup assay
# Parameters: key: below the threshold = too weak to quantify, mostly under pKd 3.1 to 4
# Conditions: plain residues with an end cap or a label only (N-terminal biotin on a linker: ado-ado)
# Chain of LIMK2, P53671 (P53671 143-248): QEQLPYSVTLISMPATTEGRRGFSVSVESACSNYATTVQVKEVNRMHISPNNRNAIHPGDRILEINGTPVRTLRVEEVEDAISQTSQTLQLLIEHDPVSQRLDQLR
row,Binder,pKd
1,B1,below the threshold
2,B2,below the threshold
3,B3,below the threshold

# Target: T8, HTRA4, P83105
# Assay: holdup assay
# Parameters: key: below the threshold = too weak to quantify, mostly under pKd 3.1 to 4
# Conditions: plain residues with an end cap or a label only (N-terminal biotin on a linker: ado-ado)
row,Binder,pKd
1,B1,below the threshold
2,B2,below the threshold
3,B3,3.98

# Target: T9, MPDZ_12, O75970
# Assay: holdup assay
# Parameters: key: below the threshold = too weak to quantify, mostly under pKd 3.1 to 4
# Conditions: plain residues with an end cap or a label only (N-terminal biotin on a linker: ado-ado)
row,Binder,pKd
1,B1,below the threshold
2,B2,3.49
3,B3,below the threshold

# Target: T10, GRIP1_7, Q9Y3R0
# Assay: holdup assay
# Parameters: key: below the threshold = too weak to quantify, mostly under pKd 3.1 to 4
# Conditions: plain residues with an end cap or a label only (N-terminal biotin on a linker: ado-ado)
row,Binder,pKd
1,B1,below the threshold
2,B2,below the threshold
3,B3,3.52

# Target: T11, DVL3, Q92997
# Assay: holdup assay
# Parameters: key: below the threshold = too weak to quantify, mostly under pKd 3.1 to 4
# Conditions: plain residues with an end cap or a label only (N-terminal biotin on a linker: ado-ado)
row,Binder,pKd
1,B1,below the threshold
2,B2,below the threshold
3,B3,below the threshold

# Target: DLG5_1, Q8TDM6
# Assay: holdup assay
# Parameters: key: below the threshold = too weak to quantify, mostly under pKd 3.1 to 4
# Conditions: plain residues with an end cap or a label only (N-terminal biotin on a linker: ado-ado)
# Chain of DLG5_1, Q8TDM6 (Q8TDM6 617-713): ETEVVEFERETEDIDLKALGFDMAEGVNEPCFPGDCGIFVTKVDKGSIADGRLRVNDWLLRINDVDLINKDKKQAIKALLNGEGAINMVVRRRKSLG
row,Binder,pKd
1,B1,3.48
2,B2,below the threshold
3,B3,below the threshold

# Target: T12, TIAM2, Q8IVF5
# Assay: holdup assay
# Parameters: key: below the threshold = too weak to quantify, mostly under pKd 3.1 to 4
# Conditions: plain residues with an end cap or a label only (N-terminal biotin on a linker: ado-ado)
row,Binder,pKd
1,B1,below the threshold
2,B2,3.91
3,B3,below the threshold

# Target: T13, LNX2_2, Q8N448
# Assay: holdup assay
# Parameters: key: below the threshold = too weak to quantify, mostly under pKd 3.1 to 4
# Conditions: plain residues with an end cap or a label only (N-terminal biotin on a linker: ado-ado)
row,Binder,pKd
1,B1,4
2,B2,5.09
3,B3,3.96

# Target: MAST2, Q6P0Q8
# Assay: holdup assay
# Parameters: key: below the threshold = too weak to quantify, mostly under pKd 3.1 to 4
# Conditions: plain residues with an end cap or a label only (N-terminal biotin on a linker: ado-ado)
# Chain of MAST2, Q6P0Q8 (Q6P0Q8 1099-1202): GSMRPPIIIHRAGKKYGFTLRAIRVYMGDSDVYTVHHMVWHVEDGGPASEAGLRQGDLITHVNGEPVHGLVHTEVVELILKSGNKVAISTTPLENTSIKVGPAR
row,Binder,pKd
1,B1,4.92
2,B2,5.11
3,B3,4.21

# Target: GOPC, Q9HD26
# Assay: holdup assay
# Parameters: key: below the threshold = too weak to quantify, mostly under pKd 3.1 to 4
# Conditions: plain residues with an end cap or a label only (N-terminal biotin on a linker: ado-ado)
row,Binder,pKd
1,B1,4.01
2,B2,4.35
3,B3,below the threshold

# Target: T14, SNTG1, Q9NSN8
# Assay: holdup assay
# Parameters: key: below the threshold = too weak to quantify, mostly under pKd 3.1 to 4
# Conditions: plain residues with an end cap or a label only (N-terminal biotin on a linker: ado-ado)
row,Binder,pKd
1,B1,3.47
2,B2,below the threshold
3,B3,3.55

# Target: ARHGEF12, Q9NZN5-2
# Assay: holdup assay
# Parameters: key: below the threshold = too weak to quantify, mostly under pKd 3.1 to 4
# Conditions: plain residues with an end cap or a label only (N-terminal biotin on a linker: ado-ado)
# Chain of ARHGEF12, Q9NZN5-2 (Q9NZN5 other isoform, or with tags, fused parts or gaps): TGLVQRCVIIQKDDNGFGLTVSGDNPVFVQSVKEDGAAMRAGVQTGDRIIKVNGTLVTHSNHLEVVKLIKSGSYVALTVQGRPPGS
row,Binder,pKd
1,B1,4.33
2,B2,4.75
3,B3,below the threshold

# Reference: article PMC9482650, “Quantitative fragmentomics allow affinity mapping of interactomes” (Nature Communications, 2022)
